Paper PMC4615104 (Cell Cycle, 2015)

Target: recombinant hMDM2 (human, UniProt Q00987 1-491)
Experiment: ELISA

Chain of recombinant hMDM2 (Q00987 whole entry): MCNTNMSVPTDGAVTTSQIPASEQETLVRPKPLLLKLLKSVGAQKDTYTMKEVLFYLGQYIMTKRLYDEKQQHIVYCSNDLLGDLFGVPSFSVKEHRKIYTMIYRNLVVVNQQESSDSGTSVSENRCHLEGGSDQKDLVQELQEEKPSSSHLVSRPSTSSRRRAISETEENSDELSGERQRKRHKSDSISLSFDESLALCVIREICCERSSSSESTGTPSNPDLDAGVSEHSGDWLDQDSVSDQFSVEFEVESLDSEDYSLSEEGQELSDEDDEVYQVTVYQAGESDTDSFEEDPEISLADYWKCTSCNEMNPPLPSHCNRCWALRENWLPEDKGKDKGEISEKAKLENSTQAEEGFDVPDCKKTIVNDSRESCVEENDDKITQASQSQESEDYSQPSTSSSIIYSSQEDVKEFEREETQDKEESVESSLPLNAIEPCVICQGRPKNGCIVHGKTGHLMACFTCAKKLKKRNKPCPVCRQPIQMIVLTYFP

Row | Binder | binding result
1 | recombinant hMDMX^FL (natural protein) MTSFSTSAQCSTSDSACRISPGQINQVRPKLPLLKILHAAGAQGEMFTVKEVMHYLGQYIMVKQLYDQQEQHMVYCGGDLLGELLGRQSFSVKDPSPLYDMLRKNLVTLATATTDAAQTLALAQDHSMDIPSQDQLKQSAEESSTSRKRTTEDDIPTLPTSEHKCIHSREDEDLIENLAQDETSRLDLGFEEWDVAGLPWWFLGNLRSNYTPRSNGSTDLQTNQDVGTAIVSDTTDDLWFLNESVSEQLGVGIKVEAADTEQTSEEVGKVSDKKVIEVGKNDDLEDSKSLSDDTDVEVTSEDEWQCTECKKFNSPSKRYCFRCWALRKDWYSDCSKLTHSLSTSDITAIPEKENEGNDVPDCRRTISAPVVRPKDAYIKKENSKLFDPCNSVEFLDLAHSSESQETISSMGEQLDNLSEQRTDTENMEDCQNLLKPCSLCEKRPRDGNIIHGRTGHLVTCFHCARRLKKAGASCPICKKEIQLVIKVFIA | binds
2 | recombinant hMDMX^p60 (natural protein) MDIPSQDQLKQSAEESSTSRKRTTEDDIPTLPTSEHKCIHSREDEDLIENLAQDETSRLDLGFEEWDVAGLPWWFLGNLRSNYTPRSNGSTDLQTNQDVGTAIVSDTTDDLWFLNESVSEQLGVGIKVEAADTEQTSEEVGKVSDKKVIEVGKNDDLEDSKSLSDDTDVEVTSEDEWQCTECKKFNSPSKRYCFRCWALRKDWYSDCSKLTHSLSTSDITAIPEKENEGNDVPDCRRTISAPVVRPKDAYIKKENSKLFDPCNSVEFLDLAHSSESQETISSMGEQLDNLSEQRTDTENMEDCQNLLKPCSLCEKRPRDGNIIHGRTGHLVTCFHCARRLKKAGASCPICKKEIQLVIKVFIA | binds
